In assay [1] the target is T1, human CD40 expressed on cells (human, UniProt P25942 21-277). Briefly: cell-based or functional assay.
For assay [2], the target named is T2, human Fibroblast Activation Protein (FAP) expressed on cells (human, UniProt Q12884 1-760).
T2 construct: Cell-surface human FAP on transfected HEK or NIH/3T3 cells; also called huFAP; human FAP-transfected HEK cells
Briefly: flow cytometry, NIH/3T3-huFAP cells.
Method: (§1) Plates were centrifuged 5 minutes at 1700 rpm and supernatants were flicked off. […] All samples were resuspended in 50 μL/well of 4° C. cold FACS buffer containing the bispecific antigen binding molecules (primary antibody) or the isotype control antibody DP47 at the indicated range of concentrations (in duplicates) and incubated for 120 minutes at 4° C. Afterwards the cells were washed three times with 200 μL 4° C. cold FACS buffer. […] Data analysis was performed using the FlowJo version 10 software (FlowJo LLC).

The target in assay [3] is T1, human CD40 expressed on cells. Briefly: flow cytometry, primary human B cells. (In general: In flow cytometry, cells or beads pass a laser one at a time.)
Method: as §1
Assay [4] addresses T3, His-tagged human FAP ectodomain (human, UniProt Q12884 27-760).
T3 construct: also called hu FAP ectodomain+poly-lys-tag+his6-tag; His-tagged FAP antigen
Kind of assay: SPR, His-tagged human FAP ectodomain as ligand. On the technique in general: Surface plasmon resonance follows binding to a sensor surface in real time, without labels.

Assay [5] concerns the target T4, biotinylated recombinant human FAP (human, UniProt Q12884 26-760, biotinylated).
T4 construct: also called biotinylated human FAP
Briefly: SPR (Biacore), biotinylated recombinant human FAP.

The target of assay [6] is T4, biotinylated recombinant human FAP. Briefly: SPR (Biacore), biotinylated huFAP on CAPture chip, Fab analyte.
Method: As running and dilution buffer, HBS-P+ (10 mM HEPES, 150 mM NaCl pH 7.4, 0.05% Surfactant P20) was used. A dilution series of anti-huFAP Fabs (3.7-300 nM, 1:3 dilution) was successively injected for 120 s each, dissociation was monitored for 1800 s at a flow rate of 30 μl/min (single cycle kinetics). The surface was regenerated by injecting 6 M guanidine-HCl, 0.25 M NaOH for 120 s. Bulk refractive index differences were corrected by subtracting blank injections and by subtracting the response obtained from the control flow cell without captured human FAP. Curve fitting was performed using the 1:1 Langmuir binding model within the Biacore evaluation software.
The target in assay [7] is T5, human DPP-IV expressed on transfected HEK cells (human, UniProt P27487 1-766).
T5 construct: whole, on cells; also called dipeptidyl peptidase IV
T5 sequence (P27487 whole entry): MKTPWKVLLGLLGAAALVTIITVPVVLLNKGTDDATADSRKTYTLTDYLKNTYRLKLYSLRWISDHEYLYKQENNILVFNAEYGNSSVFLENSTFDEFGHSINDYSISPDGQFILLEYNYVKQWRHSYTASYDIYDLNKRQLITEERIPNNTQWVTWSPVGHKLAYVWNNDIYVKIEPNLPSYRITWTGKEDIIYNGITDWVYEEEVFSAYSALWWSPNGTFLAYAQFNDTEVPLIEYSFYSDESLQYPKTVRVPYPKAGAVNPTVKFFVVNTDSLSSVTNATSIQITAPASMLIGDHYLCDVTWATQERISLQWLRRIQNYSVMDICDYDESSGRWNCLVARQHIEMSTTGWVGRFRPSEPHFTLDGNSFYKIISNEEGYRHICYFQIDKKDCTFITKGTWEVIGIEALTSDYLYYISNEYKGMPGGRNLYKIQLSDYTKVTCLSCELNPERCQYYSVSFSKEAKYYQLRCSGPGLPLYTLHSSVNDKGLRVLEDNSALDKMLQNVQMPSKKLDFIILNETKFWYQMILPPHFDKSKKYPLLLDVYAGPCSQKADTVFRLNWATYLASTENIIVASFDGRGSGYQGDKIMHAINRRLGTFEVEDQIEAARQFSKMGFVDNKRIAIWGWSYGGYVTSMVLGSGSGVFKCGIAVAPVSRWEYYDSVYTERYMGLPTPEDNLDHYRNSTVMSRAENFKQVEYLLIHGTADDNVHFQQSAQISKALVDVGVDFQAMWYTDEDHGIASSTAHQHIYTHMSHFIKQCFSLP
Briefly: flow cytometry, human DPPIV-transfected HEK cells.
Method: Binding to human FAP and human DPP-IV was determined by flow cytometry using human FAP or human DPPIV-transfected HEK cells. Briefly, the target cells were harvested with Cell Dissociation buffer, washed with FACS Buffer (PBS+2% FCS+5 mM EDTA+0.25% sodium acide) and seeded into 96-U bottom plates (1×10⁵ cells/well). Unlabeled primary antibodies were added to the cells (final concentration 10 μg/ml) and incubated for 30 min at 4° C. After washing, cells were incubated with a goat anti-mouse IgG-PE F(ab′)₂ (Serotec) for 30 min at 4° C. in the dark. Afterwards, cells were washed, fixed and measured using a BD FACS Canto™ II.

For assay [8], the target named is T2, human Fibroblast Activation Protein …. Briefly: flow cytometry, huFAP-transfected HEK cells.
Method: (§2) The binding of anti-FAP antibodies with a human IgG1 P329G LALA Fc to human FAP was determined by flow cytometry using human FAP-transfected HEK cells. Briefly, the target cells were harvested with Cell Dissociation buffer, washed with FACS Buffer (PBS+2% FCS+5 mM EDTA+0.25% sodium acide) and seeded into 96-U bottom plates (1×10^5 cells/well). Unlabeled primary antibodies were added to the cells (final concentrations 10 μg/ml to 0.64 ng/ml; 1:5 dilutions) and incubated for 30 min at 4° C. After washing, cells were incubated with a PE-conjugated AffiPure F(ab)₂ Fragment Goat anti-human IgG, Fc□ specific (Jackson Immunoresearch) for 30 min at 4° C. in the dark. Afterwards, cells were washed, fixed and measured using a BD FACS LSR Fortessa™.
Assay [9] addresses T6, cynomolgus FAP expressed on cells (cynomolgus).
T6 construct: whole, on cells
Briefly: flow cytometry, cells expressing cynomolgus FAP.

The target of assay [10] is T2, human Fibroblast Activation Protein …. Kind of assay: flow cytometry, human FAP-transfected HEK cells.
Method: as §2
Assay [11] concerns the target biotinylated recombinant cynomolgus FAP (cynomolgus). Briefly: SPR (Biacore), biotinylated recombinant cynomolgus FAP.

B1: P1AE2423, CD40 (P1AE0817) x FAP (P1AE1689) (2+1) C-terminal crossfab fusion (bispecific antibody, human IgG1, kappa, L234A L235A)
light 1: QVQLVQSGAEVKKPGASVKVSCKASGYTLTDYNMDWVRQAPGQGLEWIGDIYPNTGGTIYNQKFKGRVTMTIDTSTSTVYMELSSLRSEDTAVYYCTRFRGIHYAMDYWGQGTTVTVSSASVAAPSVFIFPPSDEQLKSGTASVVCLLNNFYPREAKVQWKVDNALQSGNSQESVTEQDSKDSTYSLSSTLTLSKADYEKHKVYACEVTHQGLSSPVTKSFNRGEC
light 2: DIVMTQTPLSLSVTPGQPASISCRSSQSLVHSNGNTFLHWYLQKPGQSPQLLIYTVSNRFSGVPDRFSGSGSGTDFTLKISRVEAEDVGVYFCSQTTHVPWTFGGGTKVEIKRTVAAPSVFIFPPSDRKLKSGTASVVCLLNNFYPREAKVQWKVDNALQSGNSQESVTEQDSKDSTYSLSSTLTLSKADYEKHKVYACEVTHQGLSSPVTKSFNRGEC
heavy 1: not shown
heavy 2: QVQLVQSGAEVKKPGASVKVSCKASGYSFTGYYIHWVRQAPGQSLEWMGRVIPNAGGTSYNQKFKGRVTLTVDKSISTAYMELSRLRSDDTAVYYCAREGIYWWGQGTTVTVSSASTKGPSVFPLAPSSKSTSGGTAALGCLVEDYFPEPVTVSWNSGALTSGVHTFPAVLQSSGLYSLSSVVTVPSSSLGTQTYICNVNHKPSNTKVDEKVEPKSCDKTHTCPPCPAPEAAGGPSVFLFPPKPKDTLMISRTPEVTCVVVDVSHEDPEVKFNWYVDGVEVHNAKTKPREEQYNSTYRVVSVLTVLHQDWLNGKEYKCKVSNKALGAPIEKTISKAKGQPREPQVCTLPPSRDELTKNQVSLSCAVKGFYPSDIAVEWESNGQPENNYKTTPPVLDSDGSFFLVSKLTVDKSRWQQGNVFSCSVMHEALHNHYTQKSLSLSPG
notes: bivalent for CD40, monovalent for FAP; also called VL-CH1 fused to Fc
In general, EC50 refers to the concentration giving half of the maximal effect. A high value points to weaker potency. The Kd is the concentration at which binding is half-saturated. One may read the koff as the rate constant with which the complex falls apart. As usually defined, the kon is the second-order rate constant of association. Take B1: in [1], the “EC50, two cell line bridging assay (SEAP of HEK-Blue CD40L reporter cells with FAP-expressing WM-266-4 cells)” value stood at 0.0032 nM. Further, in assay [2], the EC50 is 5.19 nM. It took 0.095 nM to reach a half-maximal effect in assay [3] (EC50). In assay [4], this molecule registered a Kd of 0.094 nM, a koff of 3.2e-05 s⁻¹ and a kon of 340000 M⁻¹ s⁻¹.

B2: P1AD9438_Fab (clone 212 Fab) (Fab, V domains shown)
VH: EVLLQQSGPELVKPGASVKIACKASGYTLTDYNMDWVRQSHGKSLEWIGDIYPNTGGTIYNQKFKGKATLTIDKSSSTAYMDLRSLTSEDTAVYYCTRFRGIHYAMDYWGQGTSVTVSS
VL: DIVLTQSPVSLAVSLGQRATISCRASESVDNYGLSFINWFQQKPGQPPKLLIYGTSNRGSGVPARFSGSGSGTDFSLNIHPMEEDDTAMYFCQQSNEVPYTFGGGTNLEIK
notes: Fab
As for B2, in assay [5], the Kd is 0.12 nM. Also, in assay [6], the Kd is < 0.01 nM, the koff is < 1e-06 s⁻¹ and the kon came out at 1.06e+06 M⁻¹ s⁻¹.

B3: murine anti-human FAP antibody clone 212 (hybridoma-derived) (antibody, IgG1, V domains shown)
VH: B2 VH
VL: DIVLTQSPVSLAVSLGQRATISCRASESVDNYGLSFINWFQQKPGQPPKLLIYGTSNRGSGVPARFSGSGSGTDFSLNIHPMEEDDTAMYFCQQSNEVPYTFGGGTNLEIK
notes: mu IgG1
As to B3, the binding result in assay [7] is “no binding (tested: 10 µg/ml)”.

B4: P1AD9438, anti-FAP clone 212 as huIgG1 P329G LALA (antibody, V domains shown)
VH: B2 VH
VL: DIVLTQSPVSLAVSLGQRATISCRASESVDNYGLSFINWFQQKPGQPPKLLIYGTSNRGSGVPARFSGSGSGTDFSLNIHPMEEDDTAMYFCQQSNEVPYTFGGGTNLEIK
As for B4, the EC50 in [8] was 0.118 µg/mL; in assay [9] it was 0.3 µg/mL; in [10], 0.12 µg/mL. In assay [11], the Kd is 0.14 nM.
